According to US20060153775A1:
Values belong to the substance of their own block, whether it stands above or below them.

Tests used:
[1] = target: binding target for TKPPR on HAEC (human aortic endothelial cells); assay: fluorescent beads on confluent HAEC, static 30 min, image analysis
[2] = target: binding target for TKPPR on HAEC (human aortic endothelial cells); assay: competition of 2% D47 bubble binding to HAEC; VEGF121 100 ng/mL
[3] = target: binding target for TKPPR on HAEC (human aortic endothelial cells); assay: competition of 2% D47 bubble binding to HAEC; VEGF121 200 ng/mL
[4] = target: binding target for TKPPR on HAEC (human aortic endothelial cells); assay: competition of 2% D47 bubble binding to HAEC; VEGF121 400 ng/mL
[5] = target: binding target for TKPPR on HAEC (human aortic endothelial cells); assay: competition of 5% composition bubble binding to HAEC
[6] = target: binding target for TKPPR on HAEC (human aortic endothelial cells); assay: competition of 2% D47 bubble binding to HAEC; VEGF165 25 ng/mL
[7] = target: binding target for TKPPR on HAEC (human aortic endothelial cells); assay: competition of 2% D47 bubble binding to HAEC; VEGF165 100 ng/mL
[8] = target: binding target for TKPPR on HAEC (human aortic endothelial cells); assay: competition of 5% composition bubble binding to HAEC; VEGF165 25 ng/mL
[9] = target: binding target for TKPPR on HAEC (human aortic endothelial cells); assay: competition of 5% composition bubble binding to HAEC; VEGF165 50 ng/mL
[10] = target: binding target for TKPPR on HAEC (human aortic endothelial cells); assay: competition of 5% composition bubble binding to HAEC; VEGF165 75 ng/mL
[11] = target: binding target for TKPPR on HAEC (human aortic endothelial cells); assay: competition of 5% composition bubble binding to HAEC; VEGF165 12.5 ng/mL
[12] = target: binding target for TKPPR on HAEC (human aortic endothelial cells); assay: competition of 5% composition bubble binding to HAEC; VEGF165 6.25 ng/mL
[13] = target: binding target for TKPPR on HAEC (human aortic endothelial cells); assay: competition of 5% composition bubble binding to HAEC; KDR/Fc 125 ng/mL
[14] = target: binding target for TKPPR on HAEC (human aortic endothelial cells); assay: competition of 5% composition bubble binding to HAEC; KDR/Fc 250 ng/mL
[15] = target: binding target for TKPPR on HAEC (human aortic endothelial cells); assay: competition of 5% composition bubble binding to HAEC; KDR/Fc 500 ng/mL
[16] = target: binding target for TKPPR on HAEC (human aortic endothelial cells); assay: competition of 5% composition bubble binding to HAEC; KDR/Fc 1000 ng/mL
[17] = target: binding target for TKPPR on HAEC (human aortic endothelial cells); assay: competition of 5% composition bubble binding to HAEC; KDR/Fc 2500 ng/mL

Chain of soluble human KDR/Fc chimera (R&D Systems Inc.) (P35968 20-764, change not shown): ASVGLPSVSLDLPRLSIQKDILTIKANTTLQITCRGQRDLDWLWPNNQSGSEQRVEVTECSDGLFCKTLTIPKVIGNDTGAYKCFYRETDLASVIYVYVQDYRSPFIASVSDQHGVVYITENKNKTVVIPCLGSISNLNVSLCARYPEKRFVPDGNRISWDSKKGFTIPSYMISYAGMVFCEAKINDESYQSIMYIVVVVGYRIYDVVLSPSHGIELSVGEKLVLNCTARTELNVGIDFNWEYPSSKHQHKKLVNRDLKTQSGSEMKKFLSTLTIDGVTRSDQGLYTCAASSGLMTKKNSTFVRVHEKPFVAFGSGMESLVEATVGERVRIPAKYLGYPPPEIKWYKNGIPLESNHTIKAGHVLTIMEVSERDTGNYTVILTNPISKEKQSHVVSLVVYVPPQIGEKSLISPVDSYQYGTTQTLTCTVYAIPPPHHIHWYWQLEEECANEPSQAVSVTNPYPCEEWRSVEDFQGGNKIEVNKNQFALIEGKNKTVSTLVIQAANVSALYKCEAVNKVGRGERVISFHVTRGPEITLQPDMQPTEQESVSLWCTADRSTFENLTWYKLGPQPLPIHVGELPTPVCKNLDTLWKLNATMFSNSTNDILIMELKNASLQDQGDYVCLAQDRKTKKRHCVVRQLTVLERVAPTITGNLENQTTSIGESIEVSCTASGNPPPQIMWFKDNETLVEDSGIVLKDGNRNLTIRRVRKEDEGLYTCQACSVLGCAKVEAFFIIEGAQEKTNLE

Integrated density of bound beads (arbitrary units) [1]: 1.61
Substance: BSA-conjugated fluorescent microspheres (from UniProt P02769 25-607)

Bubbles Bound in presence of competitor [2]: 878 bubbles
Bubbles Bound in presence of competitor [3]: 849 bubbles
Bubbles Bound in presence of competitor [4]: 778 bubbles
Substance: VEGF121 (from UniProt P15692 27-147) (ligand)

IC50 [5]: 0.0125 µg/mL
Bubbles Bound in presence of competitor [6]: 144 bubbles
Bubbles Bound in presence of competitor [7]: 94 bubbles
Bubbles Bound in presence of competitor [8]: 342 bubbles
Bubbles Bound in presence of competitor [9]: 226 bubbles
Bubbles Bound in presence of competitor [10]: 190 bubbles
Bubbles Bound in presence of competitor [11]: 599 bubbles
Bubbles Bound in presence of competitor [12]: 1180 bubbles
Substance: VEGF165 (from UniProt P15692 27-191) (ligand)

Bubbles Bound in presence of competitor [13]: 1030 bubbles
Bubbles Bound in presence of competitor [14]: 786 bubbles
Bubbles Bound in presence of competitor [15]: 342 bubbles
Bubbles Bound in presence of competitor [16]: 75 bubbles
Bubbles Bound in presence of competitor [17]: 84 bubbles
Substance: soluble human KDR/Fc chimera (R&D Systems Inc.) (from UniProt P35968 20-764) (Fc fusion)
